Measured values: article PMC8484547, “The NAM/ATAF1/2/CUC2 transcription factor PpNAC.A59 enhances PpERF.A16 expression to promote ethylene biosynthesis during peach fruit ripening”

B1: PpendoPGM promoter probe(s) (dsDNA)
DNA 1: CGTAAGGTCATTACGGCGCCGTTTCCCTTTTTAATTGGCG
DNA 2: CGCCAATTAAAAAGGGAAACGGCGCCGTAATGACCTTACG
B2: PpACS1 promoter probe (dsDNA)
DNA 1: ACACCATCTCAACCATTGCCCCCACAATTGATAGCTTGC
DNA 2: GCAAGCTATCAATTGTGGGGGCAATGGTTGAGATGGTGT
B3: PpACO1 promoter probe(s) (dsDNA)
DNA 1: AGTCAAAAGCTTTCGGCGTCAAGATTCCATTG
DNA 2: CAATGGAATCTTGACGCCGAAAGCTTTTGACT

Molecular target: PpERF.A16::HIS (Prunus persica? (peach), UniProt A0A251PUJ2 1-382)
Sequence (A0A251PUJ2 entry or part of it): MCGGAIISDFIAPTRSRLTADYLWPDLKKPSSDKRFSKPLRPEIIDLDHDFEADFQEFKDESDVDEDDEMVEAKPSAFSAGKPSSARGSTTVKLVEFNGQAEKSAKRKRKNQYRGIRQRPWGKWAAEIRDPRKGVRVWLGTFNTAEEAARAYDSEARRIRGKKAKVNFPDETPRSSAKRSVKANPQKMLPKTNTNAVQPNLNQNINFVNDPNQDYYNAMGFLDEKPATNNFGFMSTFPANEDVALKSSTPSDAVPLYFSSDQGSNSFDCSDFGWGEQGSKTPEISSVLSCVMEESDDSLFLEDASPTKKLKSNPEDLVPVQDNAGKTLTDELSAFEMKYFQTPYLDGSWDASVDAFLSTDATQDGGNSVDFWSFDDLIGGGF
Experiment: BLI; response rises with protein concentration; BLI: PBS (1.4 mM KH2PO4, 2.7 mM KCl, 4.3 mM Na2HPO4, 137 mM NaCl, 0.02% Tween-20, pH 7.2), temperature not stated; EMSA: 5 mM MgCl2, 2.5% glycerol, 0.05% NP-40, 1 mg (so in the source) poly(dI-dC), 200 nM probe, 1 ug protein in 20 ul, 20 min, room temperature
Details: protein: recombinant; tags: HIS, trigger factor fusion (pCold-TF); label: biotin

Binding result, binds:
B1
B2
B3
